Results published in article PMC6019379, “RecA-like domain 2 of DNA-dependent ATPase A domain, a SWI2/SNF2 protein, mediates conformational integrity and ATP hydrolysis” (Bioscience Reports, 2018).

Columns and labels:
Test in all cases: intrinsic tryptophan fluorescence titration; no ATP; Fluorescence titration (ex 295 nm, em 340 nm), one-site saturation fit; buffer, salt, pH and temperature not given in the material. Wild-type ADAAD Kd values are cited from ref 24 and not listed
Settings in all cases: protein: recombinant; tags: His (Ni-NTA, pET-14b); hairpin
ADAAD H329D/D591H = target: T1, ADAAD H329D/D591H (Bos taurus (bovine), UniProt Q9TTA5 221-940, H549D;D811H)
T1 sequence: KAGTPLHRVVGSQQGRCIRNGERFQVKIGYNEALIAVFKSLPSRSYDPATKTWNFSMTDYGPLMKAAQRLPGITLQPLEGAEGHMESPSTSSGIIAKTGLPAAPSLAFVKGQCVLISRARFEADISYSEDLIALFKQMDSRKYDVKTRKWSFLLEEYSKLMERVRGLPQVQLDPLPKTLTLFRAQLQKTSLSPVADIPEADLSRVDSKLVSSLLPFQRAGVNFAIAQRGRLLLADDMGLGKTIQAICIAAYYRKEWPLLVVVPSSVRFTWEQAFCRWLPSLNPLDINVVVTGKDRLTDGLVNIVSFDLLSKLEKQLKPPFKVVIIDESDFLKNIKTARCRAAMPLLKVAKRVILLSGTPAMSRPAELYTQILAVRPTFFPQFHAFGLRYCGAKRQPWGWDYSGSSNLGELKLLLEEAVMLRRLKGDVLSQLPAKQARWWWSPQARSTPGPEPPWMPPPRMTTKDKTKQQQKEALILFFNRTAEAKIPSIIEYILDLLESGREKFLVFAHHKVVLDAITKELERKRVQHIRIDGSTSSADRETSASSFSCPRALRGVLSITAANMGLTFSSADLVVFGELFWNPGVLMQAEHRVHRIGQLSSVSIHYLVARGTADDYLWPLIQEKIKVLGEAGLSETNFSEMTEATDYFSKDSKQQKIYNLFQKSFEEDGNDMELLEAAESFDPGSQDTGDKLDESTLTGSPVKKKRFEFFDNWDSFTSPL

ADAAD R592A = target: T2, ADAAD R592A (Bos taurus (bovine), UniProt Q9TTA5 221-940, R812A)
T2 sequence: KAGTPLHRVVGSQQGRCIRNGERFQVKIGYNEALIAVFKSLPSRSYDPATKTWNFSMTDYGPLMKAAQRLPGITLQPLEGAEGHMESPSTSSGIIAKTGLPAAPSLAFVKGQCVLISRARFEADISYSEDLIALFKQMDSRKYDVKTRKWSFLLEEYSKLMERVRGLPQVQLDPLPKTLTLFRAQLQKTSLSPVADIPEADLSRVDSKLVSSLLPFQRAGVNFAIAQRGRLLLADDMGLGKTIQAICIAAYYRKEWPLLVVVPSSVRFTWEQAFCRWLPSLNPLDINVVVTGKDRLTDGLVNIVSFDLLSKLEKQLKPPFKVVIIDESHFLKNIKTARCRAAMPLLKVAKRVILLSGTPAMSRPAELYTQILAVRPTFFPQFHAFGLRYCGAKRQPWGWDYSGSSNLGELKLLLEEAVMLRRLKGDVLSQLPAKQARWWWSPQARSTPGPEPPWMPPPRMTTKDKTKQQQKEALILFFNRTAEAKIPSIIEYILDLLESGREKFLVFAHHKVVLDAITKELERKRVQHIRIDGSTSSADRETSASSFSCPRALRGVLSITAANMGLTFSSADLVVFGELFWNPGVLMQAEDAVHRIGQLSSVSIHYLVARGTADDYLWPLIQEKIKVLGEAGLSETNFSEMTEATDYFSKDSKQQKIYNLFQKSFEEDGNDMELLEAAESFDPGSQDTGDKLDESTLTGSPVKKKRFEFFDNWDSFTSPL

ADAAD S558A = target: T3, ADAAD S558A (Bos taurus (bovine), UniProt Q9TTA5 221-940, S778A)
T3 sequence: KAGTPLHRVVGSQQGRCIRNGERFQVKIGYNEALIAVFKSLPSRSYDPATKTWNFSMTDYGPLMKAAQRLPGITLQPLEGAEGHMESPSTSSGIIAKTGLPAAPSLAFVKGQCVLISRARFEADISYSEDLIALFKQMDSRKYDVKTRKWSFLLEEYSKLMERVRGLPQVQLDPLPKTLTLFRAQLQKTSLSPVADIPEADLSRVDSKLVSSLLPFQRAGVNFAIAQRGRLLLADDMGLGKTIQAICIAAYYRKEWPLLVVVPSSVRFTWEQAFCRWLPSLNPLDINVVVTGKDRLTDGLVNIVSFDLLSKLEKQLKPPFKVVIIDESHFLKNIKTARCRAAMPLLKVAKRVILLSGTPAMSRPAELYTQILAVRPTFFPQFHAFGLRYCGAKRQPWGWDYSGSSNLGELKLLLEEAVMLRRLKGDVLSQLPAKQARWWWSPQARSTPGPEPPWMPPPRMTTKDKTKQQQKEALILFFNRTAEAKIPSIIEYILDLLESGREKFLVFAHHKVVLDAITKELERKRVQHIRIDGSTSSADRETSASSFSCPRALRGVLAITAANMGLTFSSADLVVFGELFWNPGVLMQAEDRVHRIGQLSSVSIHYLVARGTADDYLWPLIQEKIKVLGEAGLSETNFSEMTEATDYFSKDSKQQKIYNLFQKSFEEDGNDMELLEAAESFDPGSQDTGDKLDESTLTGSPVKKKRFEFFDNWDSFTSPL

GCGCAATTGCGCTCGACGATTTTTTAGCGCAATTGCGC (structured_DNA) [slDNA (stem-loop DNA)]
Kd (ADAAD H329D/D591H): 16.1 ± 5.7 nM
Kd (ADAAD R592A): 31.5 ± 1.3 nM
Kd (ADAAD S558A): 11 ± 2.7 nM
